This test addresses human full-length VWF (human, UniProt P04275 764-2813). Nature of the test: SPR, Biacore T200, antibody captured on Protein A, full-length VWF as analyte, single-cycle kinetics. Background: SPR reads the build-up and loss of mass on a sensor chip optically.

Description: Antibodies were captured on Protein A sensor chip. The system was purged using running buffer (10 mM HEPES pH 7.4, 300 mM NaCl, 3 mM EDTA, 0.05% P20) and a series S Protein A chip was docked in the Biacore T200. The surface was conditioned with 10 mM glycine-HCl pH 1.5 regeneration solution (3 injections). Each antibody was diluted to ˜0.8 μg/ml in running buffer to capture ˜350 RU on flow cells 2, 3 and 4 (flow cell 1 used as in-line reference cell). Single-cycle kinetic analysis of human full-length VWF binding to antibodies was performed using the following parameters:

B1: 1-A2_VH-par_L1 (antibody, human IgG1, kappa, V domains shown)
VH: SQSVEESGGRLVPPGTPLTLTCTVSGIDLTSNAMNWVRQAPGKGLEWIGGIYGHDTSYYAAWAKGRFTISRTSTTVDLKMTRPTTDDTATYFCARGFIYFDIWGTGTLVTISS
VL: DIQMTQSPSSLSASVGDRVTITCLASEDIYSGISWYQQKPGKAPKLLIYGASNLESGVPSRFSGSGSGTDYTLTISSLQPEDFATYYCLGGHSHSTTDLTFGGGTKVEIKT
notes: also called 1-A2_L1 (hIgG1K)
A word on the Kd: it is the equilibrium constant for the complex coming apart. Low values mean tighter binding, high ones weaker binding. One may read the koff as the rate constant with which the complex falls apart. For orientation: kon means the second-order rate constant of association. Regarding B1, binding was characterised by a dissociation constant (Kd) of 0.00707 nM, the koff worked out at 1.81e-07 s⁻¹ and the kon worked out at 25600 M⁻¹ s⁻¹.

B2: 4-H3_H8_L0 (antibody, human IgG1, kappa, V domains shown)
VH: QQLVESGGGVVQPGRSLRLSCAASGIDLTSNAMNWVRQAPGKGLEWIGGIYGHDTSYYAAWAKGRFTISRDSNTVYLQMNSLRAEDTATYFCARGFIYFDIWGQGTLVTVSS
VL: DIQMTQSPSSLSASVGDRVTITCLASEDIASGISWYQQKPGKAPKLLIYGASNLESGVPSRFSGSGSGTDFTLTISSLQPEDFATYYCLGGYSFSSNGLTFGGGTKVEIKT
notes: humanised, human IgG1 kappa
In turn, B2 yielded a Kd of 0.0125 nM, a koff of 5.66e-07 s⁻¹ and a kon of 45200 M⁻¹ s⁻¹.

B3: 1-A2_H1_L0 (antibody, human IgG1, kappa, V domains shown)
VH: QVQLVESGGGVVQPGRSLRLSCAASGIDLTSNAMNWVRQAPGKGLEWVAGIYGHDTSYYAAWAKGRFTISRDNSKNTLYLQMNSLRAEDTAVYYCARGFIYFDIWGQGTLVTVSS
VL: DIQMTQSPSSLSASVGDRVTITCLASEDIYSGISWYQQKPGKAPKLLIYGASNLESGVPSRFSGSGSGTDFTLTISSLQPEDFATYYCLGGHSHSTTDLTFGGGTKVEIKT
notes: humanised, human IgG1 kappa
B3 displayed a Kd of 0.0187 nM, a koff of 6.54e-07 s⁻¹ and a kon of 34900 M⁻¹ s⁻¹.

B4: 1-A2_H2_L1 (antibody, human IgG1, kappa, V domains shown)
VH: QQLVESGGGVVQPGRSLRLSCAASGIDLTSNAMNWVRQAPGKGLEWIGGIYGHDTSYYAAWAKGRFTISRDSNTVYLQMNSLRAEDTATYFCARGFIYFDIWGQGTLVTVSS
VL: DIQMTQSPSSLSASVGDRVTITCLASEDIYSGISWYQQKPGKAPKLLIYGASNLESGVPSRFSGSGSGTDYTLTISSLQPEDFATYYCLGGHSHSTTDLTFGGGTKVEIKT
notes: humanised, human IgG1 kappa
B4 displayed a Kd of 0.00203 nM, a koff of 3.84e-08 s⁻¹ and a kon of 19000 M⁻¹ s⁻¹.

B5: 1-A2_H0_L0 (antibody, human IgG1, kappa, V domains shown)
VH: QVQLVESGGGVVQPGRSLRLSCAASGFTFSSNAMNWVRQAPGKGLEWVAGIYGHDTSYYAAWAKGRFTISRDNSKNTLYLQMNSLRAEDTAVYYCARGFIYFDIWGQGTLVTVSS
VL: DIQMTQSPSSLSASVGDRVTITCLASEDIYSGISWYQQKPGKAPKLLIYGASNLESGVPSRFSGSGSGTDFTLTISSLQPEDFATYYCLGGHSHSTTDLTFGGGTKVEIKT
notes: humanised, human IgG1 kappa
In turn, B5 returned a Kd of 0.000231 nM, an off-rate (koff) of 2.74e-08 s⁻¹ and a kon of 119000 M⁻¹ s⁻¹.

B6: 1-A2_H2_L0 (antibody, human IgG1, kappa, V domains shown)
VH: QQLVESGGGVVQPGRSLRLSCAASGIDLTSNAMNWVRQAPGKGLEWIGGIYGHDTSYYAAWAKGRFTISRDSNTVYLQMNSLRAEDTATYFCARGFIYFDIWGQGTLVTVSS
VL: DIQMTQSPSSLSASVGDRVTITCLASEDIYSGISWYQQKPGKAPKLLIYGASNLESGVPSRFSGSGSGTDFTLTISSLQPEDFATYYCLGGHSHSTTDLTFGGGTKVEIKT
notes: humanised, human IgG1 kappa
As for B6, the Kd worked out at 0.0969 nM, the koff was 3.5e-06 s⁻¹ and the kon turned out to be 36100 M⁻¹ s⁻¹.

B7: 1-A2_VH-par_L0 (antibody, human IgG1, kappa, V domains shown)
VH: SQSVEESGGRLVPPGTPLTLTCTVSGIDLTSNAMNWVRQAPGKGLEWIGGIYGHDTSYYAAWAKGRFTISRTSTTVDLKMTRPTTDDTATYFCARGFIYFDIWGTGTLVTISS
VL: DIQMTQSPSSLSASVGDRVTITCLASEDIYSGISWYQQKPGKAPKLLIYGASNLESGVPSRFSGSGSGTDFTLTISSLQPEDFATYYCLGGHSHSTTDLTFGGGTKVEIKT
notes: also called 1-A2_L0 (hIgG1K)
B7 came in with a Kd of 0.0125 nM, a koff of 7.44e-07 s⁻¹ and a kon of 59600 M⁻¹ s⁻¹.

B8: 4-H3_VH-par_L0 (antibody, human IgG1, kappa, V domains shown)
VH: SQSLEESGGRLVPPGTPLTLTCTVSGIDLTSNAMNWVRQAPGKGLEWIGGIYGHDTSYYAAWAKGRFTISRTSTTVDLKMTRPTTDDTATYFCARGFIYFDIWGTGTLVTISS
VL: DIQMTQSPSSLSASVGDRVTITCLASEDIASGISWYQQKPGKAPKLLIYGASNLESGVPSRFSGSGSGTDFTLTISSLQPEDFATYYCLGGYSFSSNGLTFGGGTKVEIKT
notes: also called 4-H3_L0 (hIgG1K)
B8 returned a Kd of 0.00173 nM, a koff of 8.46e-08 s⁻¹ and a kon of 48800 M⁻¹ s⁻¹.

B9: 4-H3_H8_L1 (antibody, human IgG1, kappa, V domains shown)
VH: QQLVESGGGVVQPGRSLRLSCAASGIDLTSNAMNWVRQAPGKGLEWIGGIYGHDTSYYAAWAKGRFTISRDSNTVYLQMNSLRAEDTATYFCARGFIYFDIWGQGTLVTVSS
VL: DYQMTQSPSSLSASVGDRVTITCLASEDIASGISWYQQKPGKAPKLLIYGASNLESGVPSRFSGSGSGTDYTLTISSLQPEDFATYYCLGGYSFSSNGLTFGGGTKVEIKT
notes: humanised, human IgG1 kappa
The molecule B9 returned a Kd of 0.0173 nM, a koff of 9.15e-07 s⁻¹ and a kon of 52800 M⁻¹ s⁻¹.

B10: 4-H3_VH-par_L1 (antibody, human IgG1, kappa, V domains shown)
VH: SQSLEESGGRLVPPGTPLTLTCTVSGIDLTSNAMNWVRQAPGKGLEWIGGIYGHDTSYYAAWAKGRFTISRTSTTVDLKMTRPTTDDTATYFCARGFIYFDIWGTGTLVTISS
VL: DYQMTQSPSSLSASVGDRVTITCLASEDIASGISWYQQKPGKAPKLLIYGASNLESGVPSRFSGSGSGTDYTLTISSLQPEDFATYYCLGGYSFSSNGLTFGGGTKVEIKT
notes: also called 4-H3_L1 (hIgG1K)
B10 yielded a Kd of 0.00143 nM, a koff of 1.75e-08 s⁻¹ and a kon of 12300 M⁻¹ s⁻¹.

B11: 1-A2_H0_L1 (antibody, human IgG1, kappa, V domains shown)
VH: QVQLVESGGGVVQPGRSLRLSCAASGFTFSSNAMNWVRQAPGKGLEWVAGIYGHDTSYYAAWAKGRFTISRDNSKNTLYLQMNSLRAEDTAVYYCARGFIYFDIWGQGTLVTVSS
VL: DIQMTQSPSSLSASVGDRVTITCLASEDIYSGISWYQQKPGKAPKLLIYGASNLESGVPSRFSGSGSGTDYTLTISSLQPEDFATYYCLGGHSHSTTDLTFGGGTKVEIKT
notes: humanised, human IgG1 kappa
Turning to B11, the Kd is 0.0432 nM, the koff was 2.73e-06 s⁻¹ and the kon turned out to be 63200 M⁻¹ s⁻¹.

B12: 1-A2_VH-par_VL-par (antibody, human IgG1, kappa)
heavy chain: not shown
light chain: AIEMTQTPPSLSASVGETVRIRCLASEDIYSGISWYQQKPGKPPTLLIYGASNLESGVPPRFSGSGSGTDYTLTIGGVQAEDAATYYCLGGHSHSTTDLTFGAGTKVEIKTVAAPSVFIFPPSDEQLKSGTASVVCLLNNFYPREAKVQWKVDNALQSGNSQESVTEQDSKDSTYSLSSTLTLSKADYEKHKVYACEVTHQGLSSPVTKSFNRGEC
notes: also called 1-A2_parental (hIgG1)
The molecule B12 showed a Kd of 0.000125 nM.

B13: 4-H3_VH-par_VL-par (antibody, human IgG1, kappa)
heavy chain: not shown
light chain: AYDMTQTPPSLSASVGETVRIRCLASEDIASGISWYQQKPGKPPTLLIYGASNLESGVPPRFSGSGSGTDYTLTIGGVQAEDAATYYCLGGYSFSSNGLTFGAGTKVEIKTVAAPSVFIFPPSDEQLKSGTASVVCLLNNFYPREAKVQWKVDNALQSGNSQESVTEQDSKDSTYSLSSTLTLSKADYEKHKVYACEVTHQGLSSPVTKSFNRGEC
notes: also called 4-H3_parental (hIgG1)
Take B13: the Kd was 0.0717 nM.

B14: 4-H3_H8_VL-par (antibody, human IgG1, kappa, V domains shown)
VH: QQLVESGGGVVQPGRSLRLSCAASGIDLTSNAMNWVRQAPGKGLEWIGGIYGHDTSYYAAWAKGRFTISRDSNTVYLQMNSLRAEDTATYFCARGFIYFDIWGQGTLVTVSS
VL: AYDMTQTPPSLSASVGETVRIRCLASEDIASGISWYQQKPGKPPTLLIYGASNLESGVPPRFSGSGSGTDYTLTIGGVQAEDAATYYCLGGYSFSSNGLTFGAGTKVEIKT
notes: also called 4-H3_H8 (hIgG1)
Molecule B14 had a Kd of 0.0109 nM, a koff of 5.99e-07 s⁻¹ and a kon of 54900 M⁻¹ s⁻¹.

B15: 1-A2_H1_VL-par (antibody, human IgG1, kappa, V domains shown)
VH: QVQLVESGGGVVQPGRSLRLSCAASGIDLTSNAMNWVRQAPGKGLEWVAGIYGHDTSYYAAWAKGRFTISRDNSKNTLYLQMNSLRAEDTAVYYCARGFIYFDIWGQGTLVTVSS
VL: AIEMTQTPPSLSASVGETVRIRCLASEDIYSGISWYQQKPGKPPTLLIYGASNLESGVPPRFSGSGSGTDYTLTIGGVQAEDAATYYCLGGHSHSTTDLTFGAGTKVEIKT
notes: also called 1-A2_H1 (hIgG1)
In turn, B15 yielded a Kd of 0.0238 nM, a koff of 9.49e-07 s⁻¹ and a kon of 39800 M⁻¹ s⁻¹.

B16: 1-A2_H2_VL-par (antibody, human IgG1, kappa, V domains shown)
VH: QQLVESGGGVVQPGRSLRLSCAASGIDLTSNAMNWVRQAPGKGLEWIGGIYGHDTSYYAAWAKGRFTISRDSNTVYLQMNSLRAEDTATYFCARGFIYFDIWGQGTLVTVSS
VL: AIEMTQTPPSLSASVGETVRIRCLASEDIYSGISWYQQKPGKPPTLLIYGASNLESGVPPRFSGSGSGTDYTLTIGGVQAEDAATYYCLGGHSHSTTDLTFGAGTKVEIKT
notes: also called 1-A2_H2 (hIgG1)
For B16, the Kd was 0.318 nM, the koff stood at 7.8e-06 s⁻¹ and the kon worked out at 24500 M⁻¹ s⁻¹.

B17: 4-H3_H7_VL-par (antibody, human IgG1, kappa, V domains shown)
VH: QVQLVESGGGVVQPGRSLRLSCAASGIDLTSNAMNWVRQAPGKGLEWIGGIYGHDTSYYAAWAKGRFTISRDNSKNTVYLQMNSLRAEDTATYFCARGFIYFDIWGQGTLVTVSS
VL: AYDMTQTPPSLSASVGETVRIRCLASEDIASGISWYQQKPGKPPTLLIYGASNLESGVPPRFSGSGSGTDYTLTIGGVQAEDAATYYCLGGYSFSSNGLTFGAGTKVEIKT
notes: also called 4-H3_H7 (hIgG1)
B17 showed a Kd of 0.0104 nM, a koff of 3.05e-07 s⁻¹ and a kon of 29300 M⁻¹ s⁻¹.

B18: 1-A2_H0_VL-par (antibody, human IgG1, kappa, V domains shown)
VH: QVQLVESGGGVVQPGRSLRLSCAASGFTFSSNAMNWVRQAPGKGLEWVAGIYGHDTSYYAAWAKGRFTISRDNSKNTLYLQMNSLRAEDTAVYYCARGFIYFDIWGQGTLVTVSS
VL: AIEMTQTPPSLSASVGETVRIRCLASEDIYSGISWYQQKPGKPPTLLIYGASNLESGVPPRFSGSGSGTDYTLTIGGVQAEDAATYYCLGGHSHSTTDLTFGAGTKVEIKT
notes: also called 1-A2_H0 (hIgG1)
B18 had a Kd of 0.0176 nM, a koff of 6.18e-07 s⁻¹ and a kon of 35100 M⁻¹ s⁻¹.

B19: 4-H3_H6_VL-par rep (antibody, human IgG1, kappa)
heavy chain: not shown
light chain: AYDMTQTPPSLSASVGETVRIRCLASEDIASGISWYQQKPGKPPTLLIYGASNLESGVPPRFSGSGSGTDYTLTIGGVQAEDAATYYCLGGYSFSSNGLTFGAGTKVEIKTVAAPSVFIFPPSDEQLKSGTASVVCLLNNFYPREAKVQWKVDNALQSGNSQESVTEQDSKDSTYSLSSTLTLSKADYEKHKVYACEVTHQGLSSPVTKSFNRGEC
notes: also called 4-H3_H6 (hIgG1)
Consider B19, for which binding was characterised by a dissociation constant (Kd) of 0.00655 nM, the koff was determined as 3.63e-07 s⁻¹ and the kon was found to be 55300 M⁻¹ s⁻¹.

These data come from patent publication US20240228660A1 (IP2IPO INNOVATIONS, published 2024).
